Several values for one entry are separate records, joined by “and”; a condition that tells them apart may be missing. Equal entries are not always repeated. Where two headings read alike, the source gives them in different places.

In one data set the target is Asp455 (UniProt position 474, KPVMLDLYADW). As to the kind of experiment: NMR. The note with it: 298 K, isolated domain, folded.
A further data set deals with Cys461 (UniProt position 480, LYADWCVACKE). As to the kind of experiment: NMR. The note with it: 298 K, isolated domain, folded.
The target of a further data set is Cys30 (UniProt position 49, FFSFFCPHCYQ). The note with it: cited from earlier work.
The target in the next data set is Asp26 (UniProt position 26, KLVVVDFSATW). The note with it: cited from earlier work.
The target of another data set is Cys32 (UniProt position 32, FSATWCGPCKM). The note with it: reduced human thioredoxin; cited from earlier work.
The next data set deals with Cys69 (UniProt position 69, FGDYKCPSCKV). The note with it: cited from earlier work.
The mark [1] stands for this setting: not stated, 1 mM protein, oxidised (Cys-461-Cys-464 disulfide).
[2] abbreviates: not stated, 1 mM protein, reduced (dithiol).
Setting [3] is: oxidised (Cys-461-Cys-464 disulfide).

The pKa is the pH at which an ionisable group is half protonated. With “DsbD C-terminal domain, Q488K variant (Q488K-cDsbD) (Escherichia coli; Q488K)”, the pKa with Asp455 (setting [1]) is 8.0; with Asp455 (setting [2]), 7.2 and 7.1; with Asp455 (setting [3]) it was 8.1 ± 0.2; with Asp455 (reduced (dithiol)) it was 7.5 ± 0.4; with Cys461 (not stated (pH adjusted with 0.1 M DCl or NaOD), 1 mM protein, reduced (Cys-461/Cys-464 dithiol)), 10.3 and 10.5 and 10.4; with Cys461 (setting [2]), 10.9. Further, the pKa in the data set with Cys461 (reduced (dithiol)) turned out to be 10.5 ± 0.2.
On to “DsbD C-terminal domain, Q488A variant (Q488A-cDsbD) (Escherichia coli; Q488A)”, for which the pKa with Asp455 (setting [1]) was 7.7 and 7.5; in the data set with Asp455 (setting [3]) it was 8.0 ± 0.3.
Take “Thiol:disulfide interchange protein DsbA (Escherichia coli)”: the pKa in the data set with Cys30 is reported as 3.5.
In the case of “Thioredoxin (Trx1), human (Homo sapiens)”, the pKa was 8.1 with Asp26 (oxidised human thioredoxin), 9.9 with Asp26 (reduced human thioredoxin) and 6.3 with Cys32.
As for “Disulfide bond formation protein D (BdbD) (Bacillus subtilis)”, the pKa entry in the data set with Cys69 was “less than 4.5”.

(Values after publication PMC3961690.)
